Experiments:
[1] = molecular target: MPyV VP1 (major capsid protein of mouse polyomavirus) as VLPs of the VarB structure (mouse polyomavirus (MPyV)) (UniProt P03090); test: co-purification with VLPs (SDS-PAGE, Western blot, band densitometry); VP1 and FLAG-Cap-tVP3 co-expressed in insect cells; purified VLPs VarB resolved by SDS-PAGE, anti-FLAG blot; densities of Coomassie-stained bands measured
[2] = molecular target: VarC (VP1-Cap-His: entire PCV2b Cap fused to the C-terminus of MPyV VP1) (mouse polyomavirus (MPyV) | porcine circovirus 2b (PCV2b)) (UniProt P03090); test: native gel or EMSA; blue native PAGE (BN-PAGE) of purified VarC, native 3-12% gradient gel, Gelcode staining

| Substance | stoichiometry N (FLAG-Cap-tVP3 molecules per one particle) [1] | stoichiometry N ([1]; scale: molecules of Cap protein per one VLP) | stoichiometry N [2] |
| --- | --- | --- | --- |
| FLAG-Cap-tVP3 (entire PCV2b Cap fused with truncated MPyV minor capsid protein VP3) | 12 | 14 | – |
| VarC (VP1-Cap-His: entire PCV2b Cap fused to the C-terminus of MPyV VP1) (from UniProt P03090 1-383) | – | – | 10 |
